Experimental data: patent US20170102390A1

Key:
[1] = molecular target: CK8/18 Ab (mouse antibody detected by the secondary anti-mouse antibody); test: microscopy count on SKBR3 cells; 80 uL anti-mouse IgG-biotin, 7.5 uL Mag-Strept, 0 uL Mag-anti FITC
[2] = molecular target: CK8/18 Ab (mouse antibody detected by the secondary anti-mouse antibody); test: microscopy count on SKBR3 cells; 80 uL anti-mouse IgG-biotin, 7.5 uL Mag-Strept, 7.5 uL Mag-anti FITC

Carrier particles per cancer cell (carrier particles per cancer cell) [1]: 133
Carrier particles per cancer cell (carrier particles per cancer cell) [2]: 1110
Substance: Secondary antibody-biotin = goat anti-mouse IgG biotin (whole molecule)-Biotin
